Assay results reported in patent US20250144178A1, “PHARMACEUTICAL COMPOSITION FOR CANCER TREATMENT COMPRISING FUSION PROTEIN INCLUDING IL-12 AND ANTI-FAP ANTIBODY AND ANTICANCER AGENT” (KANAPH THERAPEUTICS INC., priority 2022, published 2025).

Tests used:
[1] = biological target: T1, recombinant mouse FAP (Mus musculus, UniProt P97321); test: Surface plasmon resonance binding to recombinant mouse FAP; conditions: SPR, 2 μg/ml protein, FIGS. 13 and 14
T1 sequence (P97321 1-761): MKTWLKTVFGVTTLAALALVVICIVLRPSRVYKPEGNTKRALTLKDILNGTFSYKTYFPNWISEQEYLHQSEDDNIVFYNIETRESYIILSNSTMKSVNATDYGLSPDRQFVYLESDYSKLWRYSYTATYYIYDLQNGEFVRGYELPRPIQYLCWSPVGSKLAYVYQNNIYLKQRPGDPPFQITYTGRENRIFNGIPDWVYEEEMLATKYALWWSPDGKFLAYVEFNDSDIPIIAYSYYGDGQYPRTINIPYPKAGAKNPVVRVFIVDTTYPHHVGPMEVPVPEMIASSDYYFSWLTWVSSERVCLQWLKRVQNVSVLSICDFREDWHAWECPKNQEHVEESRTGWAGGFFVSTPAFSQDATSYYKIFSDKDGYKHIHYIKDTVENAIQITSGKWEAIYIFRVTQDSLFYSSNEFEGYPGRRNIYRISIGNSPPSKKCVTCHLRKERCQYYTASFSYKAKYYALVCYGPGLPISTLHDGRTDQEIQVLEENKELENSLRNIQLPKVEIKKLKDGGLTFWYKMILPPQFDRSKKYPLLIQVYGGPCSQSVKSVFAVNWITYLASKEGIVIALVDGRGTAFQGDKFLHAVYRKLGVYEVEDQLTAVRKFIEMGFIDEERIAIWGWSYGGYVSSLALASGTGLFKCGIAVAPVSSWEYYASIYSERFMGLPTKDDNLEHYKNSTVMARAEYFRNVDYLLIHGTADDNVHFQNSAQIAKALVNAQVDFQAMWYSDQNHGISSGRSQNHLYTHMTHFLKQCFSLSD
Procedure: The surface of the CM5 chip was activated with a 1:1 mixture of […] (N-hydroxysuccinimide) and […] (1-Ethyl-3-(3-dimethylaminopropyl) carbodiimide), and 25 μg/ml of anti-mouse IgG (Fc) antibody was immobilized for 400 seconds at a rate of 10 μl/min. The remaining active ester groups were blocked with 1 M ethanolamine. T1.01m, T1.02m and T1.03m were diluted to 2 μg/ml and reacted on the CM5 chip immobilized with the anti-mouse IgG (Fc) antibody. The recombinant mouse FAP was diluted to 200 nM in 1×HBS-EP+buffer solution and diluted by serial dilution. The diluted recombinant mouse FAP was reacted at a rate of 30 μl/min. The association and dissociation times were 180 seconds and 400 seconds, respectively. After the dissociation, stabilization was performed for 60 seconds, and then a regeneration was performed for 30 seconds with a 10 mM glycine pH 1.5 solution at a rate of 30 μl/min.

[2] = tested on: HEK-Blue IL-12 cells; test: Signaling ability in IL-12 recognizing cells (STAT4 inducible SEAP reporter); format: cell-based, human; conditions: serial dilution from 4 nM, 24 hours, FIG. 18
Procedure: The HEK-Blue IL-12 cell line transformed with the IL-12 receptor gene and the STAT4 inducible SEAP reporter gene into HEK293 cells, which are human embryonic kidney fibroblasts, was obtained from Invivogen (San Diego, USA). The HEK-Blue IL-12 cells were maintained in DMEM (GIBCO) containing 10% FBS (GIBCO), 100 μg/ml Normocin and 1×HEK-Blue selection.
Specifically, the HEK-Blue IL-12 cell line, which is an IL-12 recognizing cell, was diluted to 2.8×10^5 cells/ml and dispensed at 180 μl/well. Recombinant human IL-12, T1.01m, T1.02m, T1.03m and T1.12m were suspended at 4 nM and diluted by serial dilution. HEK-Blue IL-12 cells were treated with the diluted recombinant human IL-12, T1.01m, T1.02m, T1.03m and T1.12m. After 24 hours of treatment, the cell supernatant was collected and mixed with QUANTI-Blue Solution (Invivogen) in a 96-well plate. The reporter expression level was measured at 620 nm using a spectrophotometer (Thermo Fisher).

[3] = tested on: CT26 colorectal cancer with mouse FAP overexpressing NIH-3T3 cells; test: Tumor growth inhibition, CT26 co-injected with mouse FAP overexpressing NIH-3T3; format: in vivo, BALB/c mice; conditions: for tumor growth inhibitory ability compared to control: 14th day, control 50 μg T1.24m
Procedure: Specifically, the mouse FAP overexpressing NIH-3T3 cells and the CT26 cells in culture were resuspended in Hanks' Balanced salt solution (HBSS, Gibco) at a concentration of 1×10^6 cells/50 μl, respectively, and the cells were mixed in a 1:1 ratio, and then 100 μl per each mouse was transplanted into the subcutaneous region of the right flank of 6-week-old BALB/c mice using a 1 cc syringe (25G) to obtain an FAP-expressing fibroblast co-injection animal model. The tumor size was measured using a digital vernier caliper by measuring the short axis and long axis of the tumor, and the tumor size was measured twice a week using the calculation formula of (short axis, mm) 2×(long axis, mm)×0.5.
Next, for drug efficacy evaluation, when the size of the tumor reached 100 mm^3, the mice were randomly divided into groups. Each experimental group consisted of 10 animals, and as a control, each 100 μl of 50 μg of T1.24m was intraperitoneally administered three times at an interval of 3 days. In the test group, each 100 μl of 10 μg and 50 μg of T1.02m and 50 μg of T1.01m, respectively, were intraperitoneally administered three times at an interval of 3 days to evaluate the tumor growth inhibitory ability.

[4] = tested on: FAP-overexpressing CT26 cells; test: Tumor growth inhibition, FAP-overexpressing CT26 model, repeated i.p. dosing; format: in vivo, BALB/c mice; conditions: 18 days after administration, control 50 μg T1.24m
Procedure: In order to prepare an mouse FAP-expressing tumor animal model, FAP overexpression was induced in CT26, a mouse colorectal cancer cell line. Specifically, the FAP-overexpressing CT26 cells in culture were resuspended in Hanks' Balanced salt solution (HBSS, Gibco), and then each 100 μl of 1×10^6 tumor cells per each mouse was transplanted into the subcutaneous region of the left dorsal side of 6-week-old BALB/c mice using a 1 cc syringe (25G) to obtain a mouse FAP-expressing colorectal cancer animal model. The tumor size was measured using a digital vernier caliper by measuring the short axis and long axis of the tumor, and the tumor size was measured twice a week using the calculation formula of (short axis, mm) 2×(long axis, mm)×0.5.
Next, for drug efficacy evaluation, when the size of the tumor reached 100 mm^3, the mice were randomly divided into groups. Each experimental group consisted of 8 animals, and as a control, each 100 μl of 50 μg of T1.24m was intraperitoneally administered four times at an interval of 3 days. In the test group, each 100 μl of 10 μg and 100 μg of T1.01m, and 2 μg, 10 μg and 100 μg of T1.02m, respectively, were intraperitoneally administered four times at an interval of 3 days to evaluate the tumor growth inhibitory ability.

[5] = tested on: FAP-overexpressing mouse colorectal cancer CT26; test: Tumor growth inhibition by IL-12 mutation, FAP-overexpressing CT26, single i.v. dose; format: in vivo, BALB/c mice; conditions: 10 μg i.v. once, 15 days after administration, control PBS, FIG. 28
Procedure: In order to evaluate the change in IL-12 activity according to the presence and extent of amino acid mutation, FAP-overexpressing mouse colorectal cancer CT26 was prepared by resuspending in PBS at a concentration of 5×10^5 cells/100 μl, and the tumor growth inhibitory ability was evaluated in a tumor animal model prepared by transplantation of the cells into 5-week-old female BALB/c mice.
Specifically, when the size of the tumor in the model reached 100 mm^3, the mice were randomly divided into groups. 100 μl of phosphate buffered saline (PBS) was administered once via tail vein injection of the control, and each of T1.01m, T1.02m and T1.03m was intravenously administered once at a dose of 10 μg.

B1: T1.02m: K&H bispecific: anti-mu FAP/mu IL-12 mut1, mu IgG2a DANG (seq18, seq19, seq21) (antibody)
heavy: QVQLQQSGAELARPGASVNLSCKASGYTFTNNGINWLKQRTGQGLEWIGEIYPRSTNTLYNEKFKGKATLTADRSSNTAYMELRSLTSEDSAVYFCARTLTAPFAFWGQGTLVTVSAAKTTAPSVYPLAPVCGDTTGSSVTLGCLVKGYFPEPVTLTWNSGSLSSGVHTFPAVLQSDLYTLSSSVTVTSSTWPSQSITCNVAHPASSTKVDKKIEPRGPTIKPCPPCKCPAPNLLGGPSVFIFPPKIKDVLMISLSPIVTCVVVAVSEDDPDVQISWFVNNVEVHTAQTQTHREDYGSTLRVVSALPIQHQDWMSGKEFKCKVNNKDLPAPIERTISKPKGSVRAPQVYVLPPPEEEMTKKQVTLWCMVTDFMPEDIYVEWTNNGKTELNYKNTEPVLDSDGSYFMYSKLRVEKKNWVERNSYSCSVVHEGLHNHHTTKSFSRTPGK
light: QIVLTQSPAIMSASPGEKVTMTCSASSGVNFMHWYQQKSGTSPKRWIFDTSKLASGVPARFSGSGSGTSYSLTISSMEAEDAATYYCQQWSFNPPTFGGGTKLEIKRADAAPTVSIFPPSSEQLTSGGASVVCFLNNFYPKDINVKWKIDGSERQNGVLNSWTDQDSKDSTYSMSSTLTLTKDEYERHNSYTCEATHKTSTSPIVKSFNRNEC
chain: MWELEKDVYVVEVDWTPDAPGETVNLTCDTPEEDDITWTSDQRHGVIGSGKTLTITVKEFLDAGQYTCHKGGETLSHSHLLLHKKENGIWSTEILKNFKNKTFLKCEAPNYSGRFTCSWLVQRNMDLKFNIKSSSSSPDSRAVTCGMASLSAEKVTLDQRDYEKYSVSCQEDVTCPTAEETLPIELALEARQQNKYENYSTSFFIRDIIKPDPPKNLQMKPLKNSQVEVSWEYPDSWSTPHSYFSLKFFVRIQRAKEKMAETEEGCNQKGAFLVEKTSTEVQCKGGNVCVQAQDRYYNSSCSKWACVPCRVRSGGGGSGGGGSGGGGSRVIPVSGPARCLSQSRNLLKTTDDMVKTAREKLKHYSCTAEDIDHEDITRDQTSTLKTCLPLELHKNESCLATRETSSTTRGSCLPPQKTSLMMTLCLGSIYEDLKMYQTEFQAINAALQNHNHQQIILDKGMLVAIDELMQSLNHNGETLRQKPPVGEADPYRVKMKLCILLHAFSTRVVTINRVMGYLSSAGGGGSGGGGSEPRGPTIKPCPPCKCPAPNLLGGPSVFIFPPKIKDVLMISLSPIVTCVVVAVSEDDPDVQISWFVNNVEVHTAQTQTHREDYGSTLRVVSALPIQHQDWMSGKEFKCKVNNKDLPAPIERTISKPKGSVRAPQVYVLPPPEEEMTKKQVTLSCAVTDFMPEDIYVEWTNNGKTELNYKNTEPVLDSDGSYFMVSKLRVEKKNWVERNSYSCSVVHEGLHNHHTTKSFSRTPGK
Binding to recombinant mouse FAP [1]: may bind to recombinant mouse FAP to specifically target FAP | IL-12 recognition / STAT4 reporter gene expression (620 nm absorbance) [2]: IL-12 was recognized, and STAT4 expressed a reporter gene by inducing phosphorylation | tumor growth inhibitory ability compared to control ([3]; 10 μg i.p. three times at an interval of 3 days): 93.2% | tumor growth inhibitory ability compared to control ([3]; 50 μg i.p. three times at an interval of 3 days): 92.7% | complete response ([3]; 24th day after administration, FIG. 24): subjects in complete response were observed | tumor growth inhibitory ability compared to control ([4]; 2 μg i.p. four times at an interval of 3 days): 80.1% | tumor growth inhibitory ability compared to control ([4]; 10 μg i.p. four times at an interval of 3 days): 90.5% | tumor growth inhibitory ability compared to control ([4]; 100 μg i.p. four times at an interval of 3 days): 89.8% | tumor growth inhibitory ability compared to the control [5]: excellent tumor growth inhibitory ability
